The supplement of paper PMC7877785
± gives the uncertainty stated by the source.

Experiment: self-splicing fitness, log relative to wild type (ln ratio); higher = more splicing; Tetrahymena group I intron in knt gene, E. coli kanamycin selection, DiMSum; sequences stand for … in CUCUCU…GGAGGGAAAAGUUAUCAGGCAUGCACCUGGUAGCUAGUCUUUAAACCAAUAGAUUGCAUCGGUUUAAAAGGCAAGACCGUCAAAUUGCGGGAAAGGGGUCAACAGCCGUUCAGUACCAAGUCUCAGGGGAAACUUUGAGAUGGCCUUGCAAAGGGUAUGGUAAUAAGCUGACGGACAUGGUCCUAACCACGCAGCCAAGUCCUAAGUCAACAGAUCUUCUGUUGAUAUGGAUGCAGUUCACAGACUAAAUGUCGGUCGGGGAAGAUGUAUUCUUCUCAUAAGAUAUAGUCGGACCUCUCCUUAAUGGGAGCUAGCGGAUGAAGUGAUGCAACACUGGAGCCGCUGGGAACUAAUUUGUAUGCGAAAGUAUAUUGAUUAGUUUUGGAGUACUCGUGGUCG
Method in brief: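 Six replicate transformations of E. coli BL21(DE3) with a pET-22b(+) library were grown overnight at 37°C or 30°C. The library randomised all eight P1ex-region intron nucleotides, the intron lying in the knt kanamycin-resistance gene, and plates were LB agar with or without 25 μg/mL kanamycin plus 100 μg/mL carbenicillin, 50 μM IPTG and 0.2% rhamnose. Pooled colonies were amplicon-sequenced on an Illumina HiSeq 2500, and fitness is the DiMSum error-weighted combination of wild-type-normalised replicate fold changes, kanamycin versus none.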

| Sequence | self-splicing fitness (ln) (30 °C) | self-splicing fitness (ln) (37 °C) |
| --- | --- | --- |
| UCCUAGCAAUAUUACGCAAC | -2.76 ± 0.21 | -3.38 ± 0.42 |
| UCCUAGCAAUAUUACGCAAU | -2.64 ± 0.21 | -2.05 ± 0.25 |
| UCCUAGCAAUAUUACGCCAC | -1.72 ± 0.28 | -1.15 ± 0.27 |
| UCCUAGCAAUAUUACGCCUA | -2.01 ± 0.41 | – |
| UCCUAGCAAUAUUACGCGGA | -3.3 ± 0.26 | -2.51 ± 0.25 |
| UCCUAGCAAUAUUACGCGUU | -2.01 ± 0.095 | -0.94 ± 0.1 |
| UCCUAGCAAUAUUACGCUAC | -2.35 ± 0.15 | -0.883 ± 0.3 |
| UCCUAGCAAUAUUACGCUCA | – | -2.48 ± 0.42 |
| UCCUAGCAAUAUUACGCUUC | -3.48 ± 0.18 | -3.1 ± 0.23 |
| UCCUAGCAAUAUUACGGAGC | -3.26 ± 0.29 | -1.98 ± 0.18 |
| UCCUAGCAAUAUUACGGCGC | -2.21 ± 0.24 | -1.69 ± 0.23 |
| UCCUAGCAAUAUUACGGGAU | -4.1 ± 0.22 | -2.18 ± 0.17 |
| UCCUAGCAAUAUUACGUAAA | -1.84 ± 0.19 | 0.0696 ± 0.22 |
| UCCUAGCAAUAUUACGUAAG | -3.31 ± 0.24 | -2.4 ± 0.23 |
| UCCUAGCAAUAUUACGUACC | -2.36 ± 0.47 | – |
| UCCUAGCAAUAUUACGUCUU | -4.03 ± 0.23 | -2.05 ± 0.14 |
| UCCUAGCAAUAUUACGUGAC | -3.85 ± 0.2 | -3.03 ± 0.21 |
| UCCUAGCAAUAUUACGUUAC | -3.48 ± 0.25 | -2.09 ± 0.25 |
| UCCUAGCAAUAUUACGUUUC | -2.36 ± 0.4 | -3.04 ± 0.43 |
| UCGAAGCAAUAUUACGACAG | -3.08 ± 0.23 | -1.87 ± 0.31 |
| UCGAAGCAAUAUUACGACCA | -1.16 ± 0.15 | -1.09 ± 0.18 |
| UCGAAGCAAUAUUACGAGGG | -2.48 ± 0.15 | -1.62 ± 0.2 |

| Sequence | self-splicing fitness (ln) (30 °C) | self-splicing fitness (ln) (37 °C) |
| --- | --- | --- |
| UCGAAGCAAUAUUACGAGGU | -3.45 ± 0.4 | -2.03 ± 0.29 |
| UCGAAGCAAUAUUACGAGUU | -3.31 ± 0.15 | -2.04 ± 0.21 |
| UCGAAGCAAUAUUACGCAUU | -1.97 ± 0.19 | -2.46 ± 0.26 |
| UCGAAGCAAUAUUACGCGAC | -3.47 ± 0.25 | -2.2 ± 0.26 |
| UCGAAGCAAUAUUACGCGCU | -2.18 ± 0.2 | -0.209 ± 0.24 |
| UCGAAGCAAUAUUACGCGGA | -3.61 ± 0.39 | -1.35 ± 0.17 |
| UCGAAGCAAUAUUACGCUAU | -3.24 ± 0.19 | -3.36 ± 0.42 |
| UCGAAGCAAUAUUACGCUGA | -3.44 ± 0.33 | -2.31 ± 0.29 |
| UCGAAGCAAUAUUACGGAAC | -3.33 ± 0.38 | -0.421 ± 0.39 |
| UCGAAGCAAUAUUACGGAGU | -3.99 ± 0.28 | -1.03 ± 0.15 |
| UCGAAGCAAUAUUACGGCGC | -3.11 ± 0.34 | -2.04 ± 0.32 |
| UCGAAGCAAUAUUACGGGUC | -4.14 ± 0.33 | -2.54 ± 0.44 |
| UCGAAGCAAUAUUACGGUAA | -2.11 ± 0.16 | -0.334 ± 0.13 |
| UCGAAGCAAUAUUACGGUCC | -4.15 ± 0.42 | -1.95 ± 0.31 |
| UCGAAGCAAUAUUACGUAGU | -2.53 ± 0.11 | -0.666 ± 0.11 |
| UCGAAGCAAUAUUACGUCCG | -0.163 ± 0.1 | -0.412 ± 0.12 |
| UCGAAGCAAUAUUACGUCGC | -1.76 ± 0.14 | -1.86 ± 0.19 |
| UCGAAGCAAUAUUACGUUCC | -2.35 ± 0.33 | -0.433 ± 0.41 |
| UCGAAGCAAUAUUACGUUGC | -3.36 ± 0.26 | – |
| UCGCAGCAAUAUUACGAAGG | -1.85 ± 0.096 | -0.846 ± 0.12 |
| UCGCAGCAAUAUUACGAAUC | -4.04 ± 0.2 | -2.61 ± 0.2 |
